Patent publication US20240270857A1 (CHIA TAI TIANQING PHARMACEUTICAL GROUP, published 2024)
Where a chain is given by its changes, count along the chain named.

T1: CynoIL36R-ECD mFc recombinant protein (cynomolgus monkey)
T1 construct: Made in ExpiCHO, purified on Protein A; also called cynomolgus IL-36R extracellular region with mouse antibody heavy chain Fc
T1 chain: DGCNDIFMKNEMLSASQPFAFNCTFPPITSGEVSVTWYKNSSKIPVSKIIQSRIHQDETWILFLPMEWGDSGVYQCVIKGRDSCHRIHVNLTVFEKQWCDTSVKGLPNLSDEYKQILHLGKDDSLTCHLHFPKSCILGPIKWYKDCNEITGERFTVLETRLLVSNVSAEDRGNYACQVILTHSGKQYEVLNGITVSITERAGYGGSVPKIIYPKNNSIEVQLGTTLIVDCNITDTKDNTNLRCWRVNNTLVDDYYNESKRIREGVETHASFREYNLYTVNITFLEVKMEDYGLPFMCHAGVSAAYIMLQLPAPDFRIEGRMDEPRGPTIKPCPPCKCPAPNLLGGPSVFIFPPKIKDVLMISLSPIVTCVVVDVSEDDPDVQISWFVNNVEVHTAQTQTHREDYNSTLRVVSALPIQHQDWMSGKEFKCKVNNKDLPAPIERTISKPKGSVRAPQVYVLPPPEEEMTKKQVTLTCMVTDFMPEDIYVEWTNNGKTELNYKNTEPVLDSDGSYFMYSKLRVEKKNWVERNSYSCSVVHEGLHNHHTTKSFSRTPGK

T2: human IL-36R overexpressed on 293T-hIL36R-NFκB cells (human, UniProt Q9HB29 20-575)
T2 sequence: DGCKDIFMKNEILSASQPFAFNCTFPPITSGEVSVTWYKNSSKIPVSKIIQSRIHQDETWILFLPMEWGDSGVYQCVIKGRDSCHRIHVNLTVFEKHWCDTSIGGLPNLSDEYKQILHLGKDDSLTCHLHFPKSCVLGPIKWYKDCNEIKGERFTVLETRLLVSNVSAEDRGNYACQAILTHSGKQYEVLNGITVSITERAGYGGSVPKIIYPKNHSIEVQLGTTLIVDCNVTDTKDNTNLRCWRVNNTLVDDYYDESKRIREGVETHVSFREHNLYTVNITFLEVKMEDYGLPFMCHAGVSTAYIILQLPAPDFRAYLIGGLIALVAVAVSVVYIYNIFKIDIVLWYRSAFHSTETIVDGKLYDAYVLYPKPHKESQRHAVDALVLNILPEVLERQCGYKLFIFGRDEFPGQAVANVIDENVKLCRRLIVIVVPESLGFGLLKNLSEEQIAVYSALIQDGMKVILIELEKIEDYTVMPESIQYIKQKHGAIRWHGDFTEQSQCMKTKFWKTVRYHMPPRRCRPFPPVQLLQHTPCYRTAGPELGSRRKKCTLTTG

T3: cynomolgus IL-36R overexpressed on 293T-CynoIL36R-NFκB cells (cynomolgus monkey)
T3 construct: Entry includes the signal peptide; also called monkey IL-36R
T3 chain: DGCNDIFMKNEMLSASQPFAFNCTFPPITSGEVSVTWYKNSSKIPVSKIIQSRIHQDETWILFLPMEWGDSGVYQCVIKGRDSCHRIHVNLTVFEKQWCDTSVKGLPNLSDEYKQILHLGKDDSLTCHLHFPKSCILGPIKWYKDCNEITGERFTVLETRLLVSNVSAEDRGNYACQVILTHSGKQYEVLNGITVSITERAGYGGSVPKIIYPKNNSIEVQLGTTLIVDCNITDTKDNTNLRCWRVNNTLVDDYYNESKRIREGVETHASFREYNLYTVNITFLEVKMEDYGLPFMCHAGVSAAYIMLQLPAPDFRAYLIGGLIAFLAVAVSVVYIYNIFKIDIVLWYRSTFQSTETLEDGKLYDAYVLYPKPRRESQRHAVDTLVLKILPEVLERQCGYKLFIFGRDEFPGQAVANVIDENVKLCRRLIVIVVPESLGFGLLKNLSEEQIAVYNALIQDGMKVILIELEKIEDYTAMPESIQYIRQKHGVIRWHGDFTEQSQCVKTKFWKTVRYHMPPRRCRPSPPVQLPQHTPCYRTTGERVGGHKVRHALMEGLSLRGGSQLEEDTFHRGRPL

B1: chimeric 72C1 antibody (antibody, human IgG4 S228P, kappa)
heavy: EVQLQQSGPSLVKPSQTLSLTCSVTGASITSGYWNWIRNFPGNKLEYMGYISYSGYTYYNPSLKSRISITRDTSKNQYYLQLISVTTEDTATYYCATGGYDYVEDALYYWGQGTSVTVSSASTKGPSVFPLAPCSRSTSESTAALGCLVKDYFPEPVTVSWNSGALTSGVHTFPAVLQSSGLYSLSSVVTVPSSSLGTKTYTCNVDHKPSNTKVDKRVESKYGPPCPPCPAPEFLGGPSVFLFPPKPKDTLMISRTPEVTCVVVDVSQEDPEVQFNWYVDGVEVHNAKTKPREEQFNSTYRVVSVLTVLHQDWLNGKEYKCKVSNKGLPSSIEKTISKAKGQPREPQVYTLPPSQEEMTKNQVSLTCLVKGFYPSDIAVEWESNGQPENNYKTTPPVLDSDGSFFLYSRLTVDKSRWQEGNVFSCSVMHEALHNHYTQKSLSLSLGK
light: EILLTQSPAIMSATLGEKVTMSCRASSNVRYMYWYQLKSGASPKLWIYLTSNLASGVPARFSGSGSGTSYSLTISSVEAEDAATYFCQQFTTSPYTFGGGTKLEIKRTVAAPSVFIFPPSDEQLKSGTASVVCLLNNFYPREAKVQWKVDNALQSGNSQESVTEQDSKDSTYSLSSTLTLSKADYEKHKVYACEVTHQGLSSPVTKSFNRGEC
notes: Mouse variable regions on human IgG4 / kappa; also called xi72C1
B2: BI655130 (antibody, human IgG1, kappa, L234A L235A)
heavy: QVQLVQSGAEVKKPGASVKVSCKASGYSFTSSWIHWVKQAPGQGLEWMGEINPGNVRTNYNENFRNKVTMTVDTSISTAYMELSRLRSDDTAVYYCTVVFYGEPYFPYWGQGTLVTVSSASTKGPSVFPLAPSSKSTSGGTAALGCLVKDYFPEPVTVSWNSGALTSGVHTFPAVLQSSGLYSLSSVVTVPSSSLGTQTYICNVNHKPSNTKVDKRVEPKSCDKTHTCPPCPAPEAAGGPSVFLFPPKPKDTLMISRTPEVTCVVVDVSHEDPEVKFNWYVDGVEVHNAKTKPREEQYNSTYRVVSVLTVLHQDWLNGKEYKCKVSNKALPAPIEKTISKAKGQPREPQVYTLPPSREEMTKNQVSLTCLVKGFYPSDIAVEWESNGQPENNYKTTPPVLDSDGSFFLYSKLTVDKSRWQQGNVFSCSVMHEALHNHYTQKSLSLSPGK
light: QIVLTQSPGTLSLSPGERATMTCTASSSVSSSYFHWYQQKPGQAPRLWIYRTSRLASGVPDRFSGSGSGTDFTLTISRLEPEDAATYYCHQFHRSPLTFGAGTKLEIKRTVAAPSVFIFPPSDEQLKSGTASVVCLLNNFYPREAKVQWKVDNALQSGNSQESVTEQDSKDSTYSLSSTLTLSKADYEKHKVYACEVTHQGLSSPVTKSFNRGEC
notes: also called Spesolimab
B3: hz72C1-1.1 (antibody, human IgG4 S228P, kappa)
heavy: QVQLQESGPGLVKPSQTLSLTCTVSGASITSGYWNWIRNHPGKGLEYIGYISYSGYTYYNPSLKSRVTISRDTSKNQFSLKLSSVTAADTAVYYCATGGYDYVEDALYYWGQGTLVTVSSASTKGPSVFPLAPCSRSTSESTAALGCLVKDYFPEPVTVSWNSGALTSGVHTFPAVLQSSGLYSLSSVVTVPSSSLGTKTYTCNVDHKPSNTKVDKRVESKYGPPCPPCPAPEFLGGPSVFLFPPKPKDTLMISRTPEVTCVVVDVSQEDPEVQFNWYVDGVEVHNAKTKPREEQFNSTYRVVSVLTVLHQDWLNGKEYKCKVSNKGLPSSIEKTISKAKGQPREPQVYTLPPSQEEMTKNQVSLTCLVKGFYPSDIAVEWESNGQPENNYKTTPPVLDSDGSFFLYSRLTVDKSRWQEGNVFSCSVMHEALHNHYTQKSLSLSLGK
light: DIQMTQSPSSLSASVGDRVTITCRASSNVRYMYWYQQKPGKAPKLWIYLTSNLASGVPSRFSGSGSGTSYTLTISSLQPEDFATYYCQQFTTSPYTFGQGTKLEIKRTVAAPSVFIFPPSDEQLKSGTASVVCLLNNFYPREAKVQWKVDNALQSGNSQESVTEQDSKDSTYSLSSTLTLSKADYEKHKVYACEVTHQGLSSPVTKSFNRGEC
notes: Humanized, human IgG4 / kappa; also called humanized 72C1 antibody 1.1
B4: hz72C1-1.3 (antibody, human IgG4 S228P, kappa)
heavy: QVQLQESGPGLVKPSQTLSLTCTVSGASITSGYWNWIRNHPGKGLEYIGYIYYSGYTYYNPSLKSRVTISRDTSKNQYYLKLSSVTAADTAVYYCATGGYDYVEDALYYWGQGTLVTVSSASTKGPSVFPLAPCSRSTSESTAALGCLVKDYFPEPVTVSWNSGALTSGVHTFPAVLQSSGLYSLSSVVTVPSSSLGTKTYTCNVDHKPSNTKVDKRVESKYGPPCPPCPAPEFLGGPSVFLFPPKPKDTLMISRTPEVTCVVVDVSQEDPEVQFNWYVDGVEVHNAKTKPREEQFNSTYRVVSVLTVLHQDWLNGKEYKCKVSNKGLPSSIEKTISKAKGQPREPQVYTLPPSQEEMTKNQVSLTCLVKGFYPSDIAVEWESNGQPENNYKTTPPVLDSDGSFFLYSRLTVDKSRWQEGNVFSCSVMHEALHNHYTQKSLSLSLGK
light: B3 light
notes: Humanized, human IgG4 / kappa
B5: hz84C4-1.1 (antibody, human IgG4 S228P, kappa, V domains shown)
VH: QVQLVQSGAEVKKPGASVKVSCKASGYFFTSYWMNWVRQAPGQGLEWMGMIHPYDSETRYAQKFQGRVTMTVDKSTSTVYMELSSLRSEDTAVYYCASSTTAFAYWGQGTLVTVSS
VL: DIQMTQSPSSLSASVGDRVTITCRASQDIGNALNWYQQKPGKAPKRLIYATSSLDPGVPSRFSGSRSGTDFTLTISSLQPEDFATYYCLQYASSPYTFGQGTKVEIKR
notes: Humanized, human IgG4 / kappa
B6: hz84C4-2.5 (antibody, human IgG4 S228P, kappa, V domains shown)
VH: B5 VH with A24V, R38N, Y60L, Q65K
VL: B5 VL with Y36L, F71Y
notes: Humanized, human IgG4 / kappa
B7: hz84C4-2.3 (antibody, human IgG4 S228P, kappa, V domains shown)
VH: B5 VH with H52Y
VL: B5 VL with Y36L, F71Y
notes: Humanized, human IgG4 / kappa
B8: hz84C4-1.5 (antibody, human IgG4 S228P, kappa, V domains shown)
VH: B5 VH with A24V, R38N, Y60L, Q65K
VL: B5 VL
notes: Humanized, human IgG4 / kappa
B9: hz84C4-2.4 (antibody, human IgG4 S228P, kappa, V domains shown)
VH: B5 VH with F28Y, Y60L, Q65K
VL: B5 VL with Y36L, F71Y
notes: Humanized, human IgG4 / kappa
B10: hz84C4-2.1 (antibody, human IgG4 S228P, kappa, V domains shown)
VH: B5 VH
VL: B5 VL with Y36L, F71Y
notes: Humanized, human IgG4 / kappa
B11: hz84C4-1.4 (antibody, human IgG4 S228P, kappa, V domains shown)
VH: B5 VH with F28Y, Y60L, Q65K
VL: B5 VL
notes: Humanized, human IgG4 / kappa
B12: hz84C4-1.2 (antibody, human IgG4 S228P, kappa, V domains shown)
VH: B5 VH with M50Y
VL: B5 VL
notes: Humanized, human IgG4 / kappa
B13: hz84C4-1.3 (antibody, human IgG4 S228P, kappa, V domains shown)
VH: B5 VH with H52Y
VL: B5 VL
notes: Humanized, human IgG4 / kappa
B14: hz84C4-2.2 (antibody, human IgG4 S228P, kappa, V domains shown)
VH: B5 VH with M50Y
VL: B5 VL with Y36L, F71Y
notes: Humanized, human IgG4 / kappa

Target: T1, CynoIL36R-ECD mFc recombinant protein
Assay: BLI (ForteBio Octet), antibody on ProA sensor, 1:1 model
Description: The affinity of anti-IL-36R antibodies to CynoIL36R-ECD mFc and human IL-1Rrp2/IL-IR6 protein, His Tag (ACROBiosystems, IL2-H52H6) was measured by a ForteBio molecular interaction instrument. […] And then the biosensor was used to bind CynoIL36R-ECD mFc or human IL-1Rrp2/IL-1R6 protein, His Tag which was diluted by a gradient (the initial concentration was 200 nM, 2-fold gradient dilution), the response signals were detected in real time using a Fortebio molecular interaction instrument (SARTORIUS, octet red 96e), and association and dissociation curves were obtained. After the completion of dissociation in each cycle, the biosensor was regenerated for the next capture; the procedure was repeated until the affinity of the different anti-IL-36R antibodies for IL-36R was determined. The resulting data were analyzed by Fortebio Data Analysis 11.0 software in a 1:1 (Langmuir) binding model to determine kₐ (kₒₙ) and kd (koff) values, and the dissociation constant KD was calculated by KD=kd/kₐ. The detection method essentially followed the manufacturer's recommendations, and more information could be found at www.fortebio.com.
(§1) Affinity, binding and blocking assays for humanized antibodies hz72C1-1.1, hz72C1-1.2, hz72C1-1.3, hz72C1-2.1, hz72C1-2.2 and hz72C1-2.3 as well as hz84C4-1.1, hz84C4-1.2, hz84C4-1.3, hz84C4-1.4, hz84C4-1.5, hz84C4-2.1, hz84C4-2.2, hz84C4-2.3, hz84C4-2.4 and hz84C4-2.5 were performed according to the methods of Example 4, Example 5. Example 6, Example 7 and Example 8.

| Binder | Kd | koff | kon |
| --- | --- | --- | --- |
| B1 | 0.352 nM | 9.04e-06 s⁻¹ | 25700 M⁻¹ s⁻¹ |
| B2 | 2.46 nM | 7.26e-05 s⁻¹ | 29500 M⁻¹ s⁻¹ |
| B3 | 0.66 nM | 1.51e-05 s⁻¹ | 22800 M⁻¹ s⁻¹ |
| B4 | 0.445 nM | 9.42e-06 s⁻¹ | 21200 M⁻¹ s⁻¹ |

target: T2, human IL-36R overexpressed on …; assay: cell-based or functional assay

| Binder | IC50 (M); hIL36α; NFκB-luciferase | IC50 (M); hIL36αβγ; NFκB-luciferase | IC50 (M); hIL36β; NFκB-luciferase | IC50 (M); hIL36γ; NFκB-luciferase | Maximum inhibition rate %; hIL36α; NFκB-luciferase | Maximum inhibition rate %; hIL36αβγ; NFκB-luciferase | Maximum inhibition rate %; hIL36β; NFκB-luciferase | Maximum inhibition rate %; hIL36γ; NFκB-luciferase |
| --- | --- | --- | --- | --- | --- | --- | --- | --- |
| B5 | 8.82e-10 M | 1.82e-09 M | 9.28e-10 M | 5.76e-10 M | 84.1% | 61.2% | 85.3% | 83.5% |
| B6 | 9.38e-10 M | ~1.55e-09 M | 7.66e-10 M | 3.5e-10 M | 85.7% | 54.4% | 83.1% | 84.7% |
| B2 | 1.75e-09 M | 3.27e-09 M | 2.21e-09 M | 1.1e-09 M | 83.6% | 63.3% | 85.2% | 81% |

Target: T3, cynomolgus IL-36R overexpressed on …
Assay: FACS on 293T-CynoIL36R-NFκB cells, ratio of MFI to background MFI
Description: After the cells was washed with PBS, the cells were resuspended with 100 μL of PBS and then the fluorescence signal was detected using a flow cytometer (BD, Accuri C6). […] The ratio was the ratio of mean fluorescence intensity (MFI) of the experimental group/the background MFI, and the resulting data were analyzed using GraphPad Prism.
as §1

| Binder | EC50 |
| --- | --- |
| B5 | 18 nM |
| B7 | 176 nM |
| B8 | 10.5 nM |
| B9 | 48.2 nM |
| B6 | 11.9 nM |
| B10 | 5.75 nM |
| B11 | 24.4 nM |
| B12 | 37.3 nM |
| B13 | 9.22 nM |
| B14 | 17.1 nM |
| B2 | 7.64 nM |
